Experimental data taken from US20230242902A1, “A HIGHLY ERROR-PRONE […] R[…] FOR TARGETED CONTINUOUS EVOLUTION IN VIVO” (The Regents of the University of California, priority 2017, published 2023).
Several values for one entry are separate records, joined by “and”; a condition that tells them apart may be missing. Equal values may be shown once.

What was measured:
Type in all cases: cell-based, S. cerevisiae
p1-encoded leu2 (Q180*) [1] = assay: Large-scale p1 fluctuation tests of p1-encoded leu2 (Q180*), per-base substitution rate; conditions: for Mutation rate (s.p.b.): per-base substitution rate, p1-encoded leu2 (Q180*)
Summary of the method: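 Yeast OR-Y24 carrying p1-encoded leu2 (Q180*) with individual TP-DNAP1 variants; 36-48 replicates (3-16 for highly error-prone variants), LEU2 revertants scored without leucine. Rates by maximum likelihood, normalized to cells per culture, p1 copy number (flow cytometry) and 2.33 reversion routes.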

p1 = p1 copy number by p1-encoded mKate2 fluorescence; conditions: sustained by TP-DNAP1 variant
Summary of the method: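 Read-out is mKate2 fluorescence of saturated OR-Y24 cultures, measured by flow cytometry or by plate reader with OD600 normalization. Flow values were converted by a qPCR-derived linear calibration; plate values were scaled to a w.t. TP-DNAP1 control.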

genomic URA3 gene = assay: Fluctuation tests of the genomic URA3 gene in the presence of TP-DNAP1 variants; conditions: URA3 locus, strain harbouring p1 and the TP-DNAP1 variant
Method: Fluctuation tests of the genomic URA3 gene were performed to determine genomic per-base substitution rates, as previously described (Ravikumar et al., 2014). Fluctuation data were analyzed by the maximum likelihood method, as described for large-scale p1 fluctuation tests. Phenotypic mutation rates were divided by the target size for loss of function of URA3 via base pair substitution (Lang et al., 2008), to yield per-base substitution rates. 95% confidence intervals were similarly scaled by these factors. All data related to genomic URA3 fluctuation tests are fully described in Table 5.

p1-encoded leu2 (Q180*) [2] = assay: qPCR measurement of p1-encoded leu2 (Q180*) copy number; conditions: qPCR-determined p1 copy number, OR-Y24 strains
Method: A calibration curve was established to correlate p1 copy number, determined via quantitative PCR (qPCR), with fluorescence of p1-encoded mKate2 (Table 1). Five TP-DNAP1 variants representing a wide range of copy numbers were transformed into ORY24 and passaged until w.t. p1 was displaced. The five OR-Y24 strains were grown to saturation, diluted 1:10,000 to mimic p1 fluctuation tests, and grown in triplicate 100 μL cultures and duplicate 40 mL cultures. 100 μL saturated cultures were subject to fluorescence measurement of mKate2 (ex/em=561 nm/620 nm, bandwidth=15 nm) on a flow cytometer (Invitrogen Attune NxT). Whole-cell DNA extracts were prepared from 40 mL cultures and used as templates for qPCR measurement of p1-encoded leu2 (Q180*), as described previously (Ravikumar et al., 2014). p1-encoded LEU2 was PCR amplified with qPCR-Leu2F and qPCR Leu2R; and genomic LEU3 was PCR amplified with qPCR-Leu3F and qPCR-Leu3R using SyBR Green (Fisher Scientific) master mix.

Molecule | p1 mutation rate (p1-encoded leu2 (Q180*) [1]; p1 replication by TP-DNAP1 variant) | Mutation rate (s.p.b.) (p1-encoded leu2 (Q180*) [1]; measurements taken after 90 generations, I777K, L900S) | p1 copy number (p1) | Yeast genomic substitution mutation rate (genomic URA3 gene) | Average leu2 (Q180*) copy number per cell (p1-encoded leu2 (Q180*) [2]) | Mutation rate (s.p.b.) (p1-encoded leu2 (Q180*) [1]; large-scale fluctuation test) | Average leu2 (Q180*) copy number per cell (p1-encoded leu2 (Q180*) [2]; L640Y, I777K)
TP-DNAP1-4-1: TP-DNAP1 variant (V574F, I777K, L900S), encoded by SEQ ID NO:10 (protein, listed as Kluyveromyces lactis) MDYKDKALNDLRNVYADFDSLPLDFRQILIKDRATLLQKEDVEKKILERQEDAKKYAEYLKQSEIPERISLPNIKRHKGVSISFEETSEDMVLEPRPFIFDGLNIRCFRRETIFSLKNKILNMVKESSSFKNVSRQSVSFMYFKIFNKGKVIASTKSVNIYEDKIDERLEDLCNNFDDVLKKIIDVTYGYESLFVSETYSYVIFYAKSIYFPQPRCVNNWGNNIPNILTFDSFKLFTANKNNVSCIKQCSRFLWQKDFNTLEEMIEYKNGNICIVTPQLHINDVRDIKSFNDIRLYSESPIKTFSVIDNTITYLFYFKEHLGVIFNITKSRHDRRVTKFSPLSKFSDVKNITVCFDIESYFDPEKESNQVNIPFICCASIIYNKVIGNIVDFEGRDCVAQMIEYVVDICGELNISSVELIAHNGGGYDFHYILSSMYNPAAIKNILIRNNSFISFNFAHDGVKFSVKDSYSFLLCSLANASKAFLNEETFKKTDFPHHDLKTADDLYKVYKEWSSVNTEINHVVEKEKLLITSEHIVNFTKNDKSKTLIEWSKDYCRNDVLVLSKVWLEFKNAFEDIFNCELVDQTMTLAGLSYKLFQANMPFDVELRHPNKEDYFNMREALIGGRCISVNGIYKDVLCLDVKSLYPASMAFYDQPYGSFKRVSSRPKDELGIYYVRVTPNRNNKSNFFPIRSHNKITYNNFEESTYIAWYTNVDIDIGLSEGHNIEYIPFDSYGNIGYSWSKKGKIFEKYIKDVLYKLKIKYEKQNNKVKRNVIKKIMNSLWGKFAQKWVNFEYFIKSEDDIDFESEEAYKIWDTDFMLIKKIKESTYSSKPIQNGVFTLSWARYHMKSIWDAGAKEGAECIYSDTDSIFVHKEHFKKNAKFMLNGLKVPIIGSEVGQSELECEFDKLLCAGKKQYMGFYTYFQDGKPCIKEKKRFKGIPSNYIIPELYAHLLSGADKEAKIQFLKFRREWGSVKGYIENKTVKAT | ~7×10^−6 s.p.b. | 7.58 × 10^−6 s.p.b. and 6.87 × 10^−6 s.p.b. and 7.71 × 10^−6 s.p.b. | ~5 | 1.76 × 10^−10 s.p.b. |  |  | 
I777K: TP-DNAP1 variant, encoded by SEQ ID NO:3 (protein) MDYKDKALNDLRNVYADFDSLPLDFRQILIKDRATLLQKEDVEKKILERQEDAKKYAEYLKQSEIPERISLPNIKRHKGVSISFEETSEDMVLEPRPFIFDGLNIRCFRRETIFSLKNKILNMVKESSSFKNVSRQSVSFMYFKIFNKGKVIASTKSVNIYEDKIDERLEDLCNNFDDVLKKIIDVTYGYESLFVSETYSYVIFYAKSIYFPQPRCVNNWGNNIPNILTFDSFKLFTANKNNVSCIKQCSRFLWQKDFNTLEEMIEYKNGNICIVTPQLHINDVRDIKSFNDIRLYSESPIKTFSVIDNTITYLFYFKEHLGVIFNITKSRHDRRVTKFSPLSKFSDVKNITVCFDIESYFDPEKESNQVNIPFICCASIIYNKVIGNIVDFEGRDCVAQMIEYVVDICGELNISSVELIAHNGGGYDFHYILSSMYNPAAIKNILIRNNSFISFNFAHDGVKFSVKDSYSFLLCSLANASKAFLNEETFKKTDFPHHDLKTADDLYKVYKEWSSVNTEINHVVEKEKLLITSEHIVNFTKNDKSKTLIEWSKDYCRNDVLVLSKVWLEFKNAVEDIFNCELVDQTMTLAGLSYKLFQANMPFDVELRHPNKEDYFNMREALIGGRCISVNGIYKDVLCLDVKSLYPASMAFYDQPYGSFKRVSSRPKDELGIYYVRVTPNRNNKSNFFPIRSHNKITYNNFEESTYIAWYTNVDIDIGLSEGHNIEYIPFDSYGNIGYSWSKKGKIFEKYIKDVLYKLKIKYEKQNNKVKRNVIKKIMNSLWGKFAQKWVNFEYFIKSEDDIDFESEEAYKIWDTDFMLIKKIKESTYSSKPIQNGVFTLSWARYHMKSIWDAGAKEGAECIYSDTDSIFVHKEHFKKNAKFMLNGLKVPIIGSEVGQLELECEFDKLLCAGKKQYMGFYTYFQDGKPCIKEKKRFKGIPSNYIIPELYAHLLSGADKEAKIQFLKFRREWGSVKGYIENKTVKAT |  |  |  |  | 45.8 and 54.1 |  | 
L474W, L640Y, I777K, W814N: TP-DNAP1 variant, encoded by SEQ ID NO:9 (protein, listed as Kluyveromyces lactis) MDYKDKALNDLRNVYADFDSLPLDFRQILIKDRATLLQKEDVEKKILERQEDAKKYAEYLKQSEIPERISLPNIKRHKGVSISFEETSEDMVLEPRPFIFDGLNIRCFRRETIFSLKNKILNMVKESSSFKNVSRQSVSFMYFKIFNKGKVIASTKSVNIYEDKIDERLEDLCNNFDDVLKKIIDVTYGYESLFVSETYSYVIFYAKSIYFPQPRCVNNWGNNIPNILTFDSFKLFTANKNNVSCIKQCSRFLWQKDFNTLEEMIEYKNGNICIVTPQLHINDVRDIKSFNDIRLYSESPIKTFSVIDNTITYLFYFKEHLGVIFNITKSRHDRRVTKFSPLSKFSDVKNITVCFDIESYFDPEKESNQVNIPFICCASIIYNKVIGNIVDFEGRDCVAQMIEYVVDICGELNISSVELIAHNGGGYDFHYILSSMYNPAAIKNILIRNNSFISFNFAHDGVKFSVKDSYSFLWCSLANASKAFLNEETFKKTDFPHHDLKTADDLYKVYKEWSSVNTEINHVVEKEKLLITSEHIVNFTKNDKSKTLIEWSKDYCRNDVLVLSKVWLEFKNAVEDIFNCELVDQTMTLAGLSYKLFQANMPFDVELRHPNKEDYFNMREALIGGRCISVNGIYKDVLCYDVKSLYPASMAFYDQPYGSFKRVSSRPKDELGIYYVRVTPNRNNKSNFFPIRSHNKITYNNFEESTYIAWYTNVDIDIGLSEGHNIEYIPFDSYGNIGYSWSKKGKIFEKYIKDVLYKLKIKYEKQNNKVKRNVIKKIMNSLWGKFAQKWVNFEYFIKSEDDIDFESEEAYKINDTDFMLIKKIKESTYSSKPIQNGVFTLSWARYHMKSIWDAGAKEGAECIYSDTDSIFVHKEHFKKNAKFMLNGLKVPIIGSEVGQLELECEFDKLLCAGKKQYMGFYTYFQDGKPCIKEKKRFKGIPSNYIIPELYAHLLSGADKEAKIQFLKFRREWGSVKGYIENKTVKAT |  |  |  | 2.17 × 10^−10 s.p.b. |  | 4.03 × 10^−6 s.p.b. and 2.74 × 10^−6 s.p.b. | 8.63 and 11.1
